# Reference: PMC5632219
# Target: HIV-1 glycoprotein gp120 (HIV-1) (UniProt P04578)
# Assay: ELISA
substance,measurement,value
recombinant 2G12 mAb (IgG1) (antibody),EC50,2.3 pM
